Source: the supplement of paper PMC10065799, “High-throughput profiling of sequence recognition by tyrosine kinases and SH2 domains using bacterial peptide display” (eLife, 2023)

What was measured:
Grb2 SH2 = Grb2 SH2 (UniProt P62993); test: SH2 binding enrichment of the phosphorylated peptide, bacterial display (enrichment ratio); higher = better substrate or ligand; peptides without Tyr show the background
c-Src SH2 = test: as above
SHP2-C SH2 = test: as above
Hck = Hck (UniProt P08631); test: phosphorylation enrichment, bacterial display (enrichment ratio); higher = better substrate or ligand; peptides without Tyr show the background
EPHB2 = EPHB2 (UniProt P29323); test: as above
Jak2 = Jak2 (UniProt O60674); test: as above
Fer (mouse) = test: as above
FGFR3 = FGFR3 (UniProt P22607); test: as above
AncSZ = test: as above
FGFR1 = FGFR1 (UniProt P11362); test: as above
c-Src = test: as above
MERTK = MERTK (UniProt Q12866); test: as above
EPHB1 = EPHB1 (UniProt P54762); test: as above
Fyn = Fyn (UniProt P06241); test: as above
Fes = Fes (UniProt P07332); test: as above
c-Abl (mouse) = test: as above
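Throughout, for SH2 binding enrichment of the phosphorylated peptide, bacterial display: peptide library displayed on the E. coli surface as eCPX fusions, selected cells deep-sequenced, score is each peptide's frequency after selection divided by its frequency in the input.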
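Throughout, for phosphorylation enrichment, bacterial display: 11-residue human phosphosite peptides and single-mutation variants displayed on the E. coli surface, counted by deep sequencing, each peptide's frequency after selection divided by its frequency in the unselected input library; frequency after pTyr selection over input frequency; kinase dosed for 20-30% of maximal phosphorylation in three min.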

Chain of Fyn (P06241 whole entry, looked up): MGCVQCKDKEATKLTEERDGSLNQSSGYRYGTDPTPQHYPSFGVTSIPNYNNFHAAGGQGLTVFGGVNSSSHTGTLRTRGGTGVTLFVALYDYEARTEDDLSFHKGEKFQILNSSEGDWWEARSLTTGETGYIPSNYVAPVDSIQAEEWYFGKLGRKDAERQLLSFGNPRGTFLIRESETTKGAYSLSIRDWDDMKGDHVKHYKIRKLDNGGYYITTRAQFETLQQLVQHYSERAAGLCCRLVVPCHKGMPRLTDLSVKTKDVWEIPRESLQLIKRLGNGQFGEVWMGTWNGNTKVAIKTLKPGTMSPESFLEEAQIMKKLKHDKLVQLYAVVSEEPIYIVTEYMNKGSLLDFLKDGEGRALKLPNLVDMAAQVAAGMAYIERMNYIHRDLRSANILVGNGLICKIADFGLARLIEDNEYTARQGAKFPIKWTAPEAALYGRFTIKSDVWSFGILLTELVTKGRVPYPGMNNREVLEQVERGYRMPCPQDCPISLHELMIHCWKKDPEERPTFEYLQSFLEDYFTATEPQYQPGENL
Chain of Hck (P08631 whole entry, looked up): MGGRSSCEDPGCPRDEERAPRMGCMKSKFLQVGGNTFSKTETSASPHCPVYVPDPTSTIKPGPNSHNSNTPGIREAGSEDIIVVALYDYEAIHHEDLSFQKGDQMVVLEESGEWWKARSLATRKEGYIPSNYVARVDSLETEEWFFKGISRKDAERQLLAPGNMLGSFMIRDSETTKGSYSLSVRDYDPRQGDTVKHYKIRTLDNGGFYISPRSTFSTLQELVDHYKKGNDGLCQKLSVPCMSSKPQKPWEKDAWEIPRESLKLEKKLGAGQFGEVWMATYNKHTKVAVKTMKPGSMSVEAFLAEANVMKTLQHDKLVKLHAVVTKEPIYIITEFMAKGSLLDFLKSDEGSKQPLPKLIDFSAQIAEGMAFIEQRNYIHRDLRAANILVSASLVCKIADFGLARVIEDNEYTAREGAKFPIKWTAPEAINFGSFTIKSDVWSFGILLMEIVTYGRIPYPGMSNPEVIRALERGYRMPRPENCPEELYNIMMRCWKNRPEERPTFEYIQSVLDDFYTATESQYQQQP
Chain of MERTK (Q12866 whole entry, looked up): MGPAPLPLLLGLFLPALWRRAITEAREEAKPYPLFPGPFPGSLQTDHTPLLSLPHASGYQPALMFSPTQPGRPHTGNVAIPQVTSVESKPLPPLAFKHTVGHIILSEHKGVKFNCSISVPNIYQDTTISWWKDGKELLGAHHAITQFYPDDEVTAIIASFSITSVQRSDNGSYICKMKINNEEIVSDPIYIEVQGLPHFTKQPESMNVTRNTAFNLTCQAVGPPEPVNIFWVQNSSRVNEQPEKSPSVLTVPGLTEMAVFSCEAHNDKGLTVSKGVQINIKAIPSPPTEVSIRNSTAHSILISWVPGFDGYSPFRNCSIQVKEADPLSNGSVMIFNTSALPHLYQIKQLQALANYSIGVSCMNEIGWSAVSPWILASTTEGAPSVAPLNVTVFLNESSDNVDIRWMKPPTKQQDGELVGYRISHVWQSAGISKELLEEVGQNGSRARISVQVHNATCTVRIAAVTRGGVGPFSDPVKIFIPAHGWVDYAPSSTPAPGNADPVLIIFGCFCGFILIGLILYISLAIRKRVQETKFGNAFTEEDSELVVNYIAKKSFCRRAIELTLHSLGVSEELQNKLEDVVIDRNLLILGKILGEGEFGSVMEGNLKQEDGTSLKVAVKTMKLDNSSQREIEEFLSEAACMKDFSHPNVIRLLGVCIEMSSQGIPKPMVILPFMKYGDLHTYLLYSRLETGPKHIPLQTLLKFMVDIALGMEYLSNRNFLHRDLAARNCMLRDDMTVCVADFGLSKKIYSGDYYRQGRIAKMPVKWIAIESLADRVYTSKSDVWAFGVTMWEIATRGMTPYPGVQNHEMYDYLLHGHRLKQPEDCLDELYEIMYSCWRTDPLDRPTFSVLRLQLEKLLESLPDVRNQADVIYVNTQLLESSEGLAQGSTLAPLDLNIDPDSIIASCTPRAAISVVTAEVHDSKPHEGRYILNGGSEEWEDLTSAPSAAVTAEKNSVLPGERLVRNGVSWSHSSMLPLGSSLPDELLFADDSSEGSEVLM
Chain of FGFR3 (P22607 whole entry, looked up): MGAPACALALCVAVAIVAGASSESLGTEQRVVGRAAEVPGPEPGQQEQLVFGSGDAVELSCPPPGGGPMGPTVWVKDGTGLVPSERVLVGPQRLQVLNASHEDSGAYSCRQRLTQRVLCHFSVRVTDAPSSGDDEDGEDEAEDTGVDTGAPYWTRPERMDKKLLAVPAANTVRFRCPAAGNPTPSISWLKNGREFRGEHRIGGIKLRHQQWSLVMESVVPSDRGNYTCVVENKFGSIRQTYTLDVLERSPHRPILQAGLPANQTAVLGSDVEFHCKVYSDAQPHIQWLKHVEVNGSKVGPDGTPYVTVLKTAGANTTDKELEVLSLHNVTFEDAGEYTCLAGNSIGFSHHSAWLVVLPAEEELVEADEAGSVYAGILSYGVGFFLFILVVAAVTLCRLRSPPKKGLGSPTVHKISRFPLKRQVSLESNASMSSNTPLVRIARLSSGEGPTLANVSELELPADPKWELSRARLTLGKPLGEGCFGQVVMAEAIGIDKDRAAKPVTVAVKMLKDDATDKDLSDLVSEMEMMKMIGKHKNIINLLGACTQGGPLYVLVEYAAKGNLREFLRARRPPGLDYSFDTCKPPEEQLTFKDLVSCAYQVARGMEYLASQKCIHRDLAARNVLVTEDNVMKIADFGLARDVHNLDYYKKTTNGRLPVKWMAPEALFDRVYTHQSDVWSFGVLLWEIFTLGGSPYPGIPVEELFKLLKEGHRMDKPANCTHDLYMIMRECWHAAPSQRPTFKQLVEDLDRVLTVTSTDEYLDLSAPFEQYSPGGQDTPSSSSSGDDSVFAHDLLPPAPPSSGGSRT
Chain of EPHB1 (P54762 whole entry, looked up): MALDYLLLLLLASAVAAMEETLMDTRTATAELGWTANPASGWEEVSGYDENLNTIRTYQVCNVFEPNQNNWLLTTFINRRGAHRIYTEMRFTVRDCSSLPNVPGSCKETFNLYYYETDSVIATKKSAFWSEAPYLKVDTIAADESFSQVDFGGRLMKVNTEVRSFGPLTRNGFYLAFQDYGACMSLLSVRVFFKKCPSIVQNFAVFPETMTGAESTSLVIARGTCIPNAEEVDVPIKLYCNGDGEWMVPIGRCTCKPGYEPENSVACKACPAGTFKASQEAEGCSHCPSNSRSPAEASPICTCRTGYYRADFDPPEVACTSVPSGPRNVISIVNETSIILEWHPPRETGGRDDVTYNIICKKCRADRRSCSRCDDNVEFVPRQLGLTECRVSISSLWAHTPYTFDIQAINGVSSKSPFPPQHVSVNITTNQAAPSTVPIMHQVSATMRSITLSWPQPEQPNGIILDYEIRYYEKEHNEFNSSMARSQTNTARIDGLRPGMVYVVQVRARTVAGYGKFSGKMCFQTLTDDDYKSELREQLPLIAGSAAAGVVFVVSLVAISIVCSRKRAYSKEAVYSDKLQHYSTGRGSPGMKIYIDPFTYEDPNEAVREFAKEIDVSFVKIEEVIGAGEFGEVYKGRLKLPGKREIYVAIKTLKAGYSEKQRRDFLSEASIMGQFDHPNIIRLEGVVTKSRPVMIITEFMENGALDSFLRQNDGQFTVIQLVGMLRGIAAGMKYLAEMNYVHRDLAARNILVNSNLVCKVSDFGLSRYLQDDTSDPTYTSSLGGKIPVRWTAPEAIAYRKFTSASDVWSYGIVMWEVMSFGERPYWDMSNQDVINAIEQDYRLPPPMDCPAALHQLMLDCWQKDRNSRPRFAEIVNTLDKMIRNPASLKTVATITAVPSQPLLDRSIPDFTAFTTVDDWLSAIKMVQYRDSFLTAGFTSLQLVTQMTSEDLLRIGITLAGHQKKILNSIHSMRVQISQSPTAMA
Chain of EPHB2 (P29323 whole entry, looked up): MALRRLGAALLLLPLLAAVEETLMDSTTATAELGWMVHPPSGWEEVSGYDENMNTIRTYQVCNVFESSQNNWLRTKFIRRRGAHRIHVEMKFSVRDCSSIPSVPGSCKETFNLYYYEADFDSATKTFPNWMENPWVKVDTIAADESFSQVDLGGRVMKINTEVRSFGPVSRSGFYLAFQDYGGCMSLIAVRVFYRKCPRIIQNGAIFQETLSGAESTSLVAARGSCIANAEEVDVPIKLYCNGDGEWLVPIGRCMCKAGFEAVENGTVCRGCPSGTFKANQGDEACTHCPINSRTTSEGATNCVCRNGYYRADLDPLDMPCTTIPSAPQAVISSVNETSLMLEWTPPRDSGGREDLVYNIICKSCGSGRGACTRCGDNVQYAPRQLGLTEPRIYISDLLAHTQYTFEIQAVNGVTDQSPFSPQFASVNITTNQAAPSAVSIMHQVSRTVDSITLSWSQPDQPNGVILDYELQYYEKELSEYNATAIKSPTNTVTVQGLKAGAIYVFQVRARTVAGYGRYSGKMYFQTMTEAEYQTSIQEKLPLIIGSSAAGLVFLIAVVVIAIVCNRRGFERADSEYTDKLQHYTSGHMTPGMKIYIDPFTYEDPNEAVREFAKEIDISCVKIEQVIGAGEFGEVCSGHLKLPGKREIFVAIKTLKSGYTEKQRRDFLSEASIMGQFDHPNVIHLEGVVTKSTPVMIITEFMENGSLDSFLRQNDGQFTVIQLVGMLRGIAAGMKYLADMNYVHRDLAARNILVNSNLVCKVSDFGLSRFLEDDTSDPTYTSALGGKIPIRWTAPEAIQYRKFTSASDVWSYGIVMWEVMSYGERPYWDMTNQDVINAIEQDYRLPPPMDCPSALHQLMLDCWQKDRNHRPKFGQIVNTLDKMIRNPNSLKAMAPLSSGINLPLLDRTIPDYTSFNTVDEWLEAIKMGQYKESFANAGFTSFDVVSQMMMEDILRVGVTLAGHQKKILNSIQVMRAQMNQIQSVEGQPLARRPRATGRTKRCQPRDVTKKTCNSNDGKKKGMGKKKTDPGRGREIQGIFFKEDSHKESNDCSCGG

Row | SH2 binding enrichment (Grb2 SH2) | SH2 binding enrichment (c-Src SH2) | SH2 binding enrichment (SHP2-C SH2) | Sequence | phosphorylation enrichment (Hck) | phosphorylation enrichment (EPHB2) | phosphorylation enrichment (Jak2) | phosphorylation enrichment (Fer (mouse)) | phosphorylation enrichment (FGFR3) | phosphorylation enrichment (AncSZ) | phosphorylation enrichment (FGFR1) | phosphorylation enrichment (c-Src) | phosphorylation enrichment (MERTK) | phosphorylation enrichment (EPHB1) | phosphorylation enrichment (Fyn) | phosphorylation enrichment (Fes) | phosphorylation enrichment (c-Abl (mouse))
1 | 1.06 | 0.719 | 0.942 | DAHFTYSRFPW [LY75_Y888_D884A_YF] | 5.79 | 3.63 | 1.29 | 0.499 | 0.736 | 1.05 | 0.748 | 5.62 | 3.89 | 2.72 | 3.13 | 1.09 | 1
2 | 0.86 | 0.656 | 0.623 | DDERGYRRVRS [GIGYF2_Y268] | 0.353 | 0.398 | 0.461 | 0.406 | 0.407 | 0.563 | 0.386 | 0.461 | 0.455 | 0.306 | 0.366 | 0.593 | 0.563
3 | 0.828 | 0.455 | 0.568 | DFDHSYFFIAT [ESD_Y262_G257D_YF] | 0.694 | 0.606 | 7.99 | 0.786 | 7.62 | 2.16 | 8.9 | 0.738 | 0.867 | 0.717 | 0.55 | 1.36 | 0.958
4 | 0.967 | 0.428 | 0.775 | DFFDLYGGKKF [PTPN11_Y66_E69K_YF] | 7.26 | 0.519 | 0.974 | 0.499 | 0.616 | 1.01 | 0.57 | 3.49 | 0.489 | 0.44 | 3.04 | 1.02 | 0.69
5 | 0.694 | 0.527 | 0.713 | DFTSRYLSASD [PKHD1_Y828_N830S] | 0.453 | 0.564 | 0.625 | 0.42 | 0.605 | 0.79 | 0.535 | 0.329 | 0.46 | 0.549 | 0.466 | 0.846 | 0.546
6 | 0.931 | 7.06 | 0.702 | DIRAQYDELAR [KRT18_Y256] | 0.761 | 0.483 | 1.04 | 0.503 | 0.592 | 1.02 | 0.576 | 0.474 | 0.47 | 0.452 | 0.58 | 1.01 | 0.766
7 | 0.808 | 0.644 | 0.839 | DKANRYFSPNV [PTEN_Y336_F341V] | 0.376 | 0.394 | 0.412 | 0.363 | 0.504 | 0.446 | 0.355 | 0.388 | 0.354 | 0.297 | 0.378 | 0.544 | 0.486
8 | 0.824 | 0.512 | 0.688 | DKATEYSQFMR [MAX_Y70_I71S_YF] | 0.631 | 0.541 | 0.524 | 0.392 | 0.397 | 0.84 | 0.449 | 0.873 | 0.423 | 0.39 | 0.733 | 0.683 | 0.519
9 | 0.843 | 3.24 | 1.41 | DLAAQYTTVGH [SGSH_Y240_R245H] | 0.96 | 0.453 | 0.586 | 0.519 | 0.651 | 0.854 | 0.462 | 0.699 | 0.405 | 0.463 | 0.585 | 0.947 | 0.593
10 | 0.897 | 0.43 | 0.642 | DLQDENDFKCK [STAT1_Y170_Y170N] | 0.602 | 0.737 | 1.55 | 0.612 | 0.853 | 1.42 | 0.568 | 0.498 | 0.415 | 0.621 | 0.548 | 1.86 | 0.812
11 | 0.973 | 7.49 | 0.928 | DLRTGYSVPFG [TGM1_Y370_Y365D_YF] | 0.418 | 0.468 | 0.576 | 0.486 | 0.644 | 0.664 | 0.493 | 0.341 | 0.364 | 0.44 | 0.48 | 0.721 | 0.794
12 | 0.979 | 0.524 | 0.911 | DPEGAYTTRGG [EPHA3_Y779_A777G] | 0.483 | 0.501 | 0.774 | 0.515 | 0.534 | 0.896 | 0.369 | 0.536 | 0.412 | 0.497 | 0.394 | 0.798 | 0.789
13 | 0.744 | 0.732 | 0.844 | DPGVSYRTREE [PDHA1_Y301] | 0.461 | 0.61 | 0.549 | 0.368 | 0.53 | 0.891 | 0.637 | 0.376 | 0.378 | 0.385 | 0.409 | 0.809 | 0.647
14 | 0.989 | 0.738 | 0.646 | DPKFHYDNTAG [KDR_Y1214] | 0.496 | 0.422 | 0.698 | 0.401 | 0.489 | 0.667 | 0.467 | 0.547 | 0.505 | 0.373 | 0.524 | 0.79 | 0.497
15 | 1.19 | 0.67 | 0.797 | DPLLTYWFPPK [LMNA_Y481_R482W] | 7.34 | 14.8 | 5.74 | 0.933 | 6.67 | 2.78 | 8.47 | 6.1 | 9.17 | 12.6 | 6.5 | 1.13 | 11.6
16 | 0.874 | 1.09 | 0.762 | DPYHVYIKNRV [KCNE3_Y95] | 0.958 | 0.567 | 0.872 | 0.375 | 0.628 | 0.973 | 0.407 | 2.15 | 0.396 | 0.544 | 1.02 | 1.02 | 0.832
